Molecular target: T1, Recombinant human TLR4/MD2 complex (human, UniProt O00206 24-631; Q9Y6Y9 19-160)
T1 construct: Toll-like receptor 4 (TLR4), human, soluble recombinant; MD2 (lymphocyte antigen 96), human, recombinant; No catalogue number is printed; also called rTLR4/MD2; soluble recombinant TLR4/MD2; source: bought: R&D system
Experiment: ELISA; solid-phase binding assay: recombinant TLR4/MD2 (1 µg/ml) coated on 96 maxisorp well plates overnight at 4 °C; GST or GST-Tat at 0.1-1 µM for 2 hours at room temperature; detected with anti-GST and a peroxidase-conjugated secondary antibody
Details: both partners purified

T1 sequence (O00206 24-631, chain 1 of 2): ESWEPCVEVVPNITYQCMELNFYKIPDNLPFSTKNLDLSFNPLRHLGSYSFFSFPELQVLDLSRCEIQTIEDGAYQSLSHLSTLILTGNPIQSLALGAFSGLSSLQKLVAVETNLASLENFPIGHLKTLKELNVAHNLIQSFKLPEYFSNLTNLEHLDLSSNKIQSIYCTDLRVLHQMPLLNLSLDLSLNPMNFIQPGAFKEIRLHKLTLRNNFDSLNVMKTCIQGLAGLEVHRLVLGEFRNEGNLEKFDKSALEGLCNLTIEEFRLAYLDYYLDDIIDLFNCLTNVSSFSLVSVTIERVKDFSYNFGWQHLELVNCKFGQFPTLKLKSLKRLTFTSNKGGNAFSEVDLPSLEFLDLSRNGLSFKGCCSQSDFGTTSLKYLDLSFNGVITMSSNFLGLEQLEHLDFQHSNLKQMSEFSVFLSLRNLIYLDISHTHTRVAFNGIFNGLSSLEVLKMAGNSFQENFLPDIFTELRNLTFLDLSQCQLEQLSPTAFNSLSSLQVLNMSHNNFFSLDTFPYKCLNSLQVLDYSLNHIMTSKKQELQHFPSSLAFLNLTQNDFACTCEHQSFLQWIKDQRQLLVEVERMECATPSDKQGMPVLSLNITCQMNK
T1 sequence (Q9Y6Y9 19-160, chain 2 of 2): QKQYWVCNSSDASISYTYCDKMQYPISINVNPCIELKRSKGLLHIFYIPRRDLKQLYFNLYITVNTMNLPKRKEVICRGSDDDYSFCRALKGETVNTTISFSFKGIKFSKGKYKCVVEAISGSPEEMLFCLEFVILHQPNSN

B1: Recombinant HIV-1 Tat full length protein (Tat 1-101) fused to glutathione S-transferase (natural protein)
chain: MEPVDPNLEPWKHPGSQPRTACNNCYCKKCCFHCYACFTRKGLGISYGRKKRRQRRRAPQDSQTHQASLSKQPASQSRGDPTGPTESKKKVERETETDPFD
notes: Tat protein of HIV-1 group M subtype B (isolate SF2), full length protein, Tat 1-101; Endotoxin below 0.3 EU/µg; also called GST-Tat 1-101; GST-Tat1-101
  binding result: binds
